Experimental data: publication PMC4963209 (2016)

Target: T1, Juno (UniProt Q9EQF4 20-222)
T1 chain: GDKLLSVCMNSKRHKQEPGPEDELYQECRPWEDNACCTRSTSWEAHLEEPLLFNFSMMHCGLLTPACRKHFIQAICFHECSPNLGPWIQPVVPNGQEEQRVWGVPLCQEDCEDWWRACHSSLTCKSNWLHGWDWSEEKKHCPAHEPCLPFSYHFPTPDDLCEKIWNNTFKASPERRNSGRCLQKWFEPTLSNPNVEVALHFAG
Assay: MST

Kd: 620 nM
B1: Izumo1 ectodomain (domain or fragment)
chain: CIKCDQFVTDALKTFENTYLNDHLPHDIHKNVMRMVNHEVSSFGVVTSAEDSYLGAVDENTLEQATWSFLKDLKRITDSDLKGELFIKELLWMLRHQKDIFNNLARQFQKEVLCPNKCGVMSQTLIWCLKCEKQLHICRKSLDCGERHIEVHRSEDLVLDCLLSWHRASKGLTDYSFYRVWENSSETLIAKGKEPYLTKSMVGPEDAGNYRCVLDTINQGHATVIRYDVTVLPPKHSEENQPPNIITQEEHETPVHVTPQTPPGQEPESELYPELHPELYPELIPTVAQNPEKKMKTR
modifications: N-acetylglucosamine attached to N204 (seen in the crystal structure)
